Data: patent US20230018242A1

Columns and labels:
[1] = target: pre-S region E. coli recombinant protein (hepatitis B virus); assay: chemiluminescent ELISA, serially diluted antigen coated, antibody 1:2000
[2] = target: large surface protein of hepatitis B virus (LHBS), full-length (hepatitis B virus); assay: chemiluminescent sandwich ELISA on pooled HBsAg(+) sera; pre-S1 antibody coated, pre-S2 antibody detecting (platform 1)
[3] = target: large surface protein of hepatitis B virus (LHBS), full-length (hepatitis B virus); assay: chemiluminescent sandwich ELISA on pooled HBsAg(+) sera; pre-S1 antibody coated, HBS antibody detecting (platform 2)

pre-S region E. coli recombinant protein (hepatitis B virus), sequence (P03141 2-174): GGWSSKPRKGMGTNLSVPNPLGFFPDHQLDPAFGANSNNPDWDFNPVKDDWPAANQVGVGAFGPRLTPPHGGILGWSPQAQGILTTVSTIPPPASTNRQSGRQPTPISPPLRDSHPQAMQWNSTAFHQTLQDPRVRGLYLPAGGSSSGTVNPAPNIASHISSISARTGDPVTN

Binder	limit of linearity (LOL) [1] [ng/mL]	limit of quantification (LOQ) [1] [ng/mL]	limit of quantification (LOQ) [2] [ng/mL]	limit of quantification (LOQ) [3] [ng/mL]
pre-S2 monoclonal antibody (antibody, V domains shown) VH: QVQLQQPGTELVKPGTSVKLSCKASGYTFTSYWMHWVKLRPGQGFEWIGEINPSNGITNYNEKFKRKATLTVDKSSTTAYMQLSSLTFEDSAVYYCTIGYDYGSNYEAMDFWGQGTSVTVSS VL: DIVMTQAAFSNPVTLGTSASMSCRSSKSLLHSNGITYLYWYLQKPGQSPQLLIYQMSNLASGVPDRFSSGGSGTDFTLRISRVEAEDVGVYYCAQNLELPWTFGGGTKLEIK	1.56	0.04	13.5	
HBS monoclonal antibody (antibody, V domains shown) VH: VQLQQSGPELVKPGASVKMSCKASGYTLTDYVIGWVKQRTGQGLEWIGEVYPGSVYTSYNEKFKGKATLTADKSSNTAYMQLSGLTSDDSAVYFCAYDGYSPFDYWGQGTTLTVSS VL: NIVMTQSPKSMSMSVGERVTLTCKASENVGTYVSWFQQKPGQSPKLLIYGASNRYIGVPDRFTGSGSATDFTLTISSVQAEDLAEYHCGQSYNYPHTFGGGTKLVIKR				1.7
